Laboratory results published in patent US20230302100A1.

Tests used:
[1] = biological target: denosumab (XGEVA); test: cell-based or functional assay
[2] = biological target: adalimumab (Humira); test: cell-based or functional assay

Substance: pCART144 (IdeZ with N terminal methionine and histidine tag) (enzyme)
- IgG2 (denosumab) cleavage, SDS-PAGE titration: enzyme concentration giving a dominating F(ab')2 band [1]: 3.3 µg/mL
- IgG2 (denosumab) cleavage, SDS-PAGE titration: enzyme concentration giving a single intense scIgG band [1]: 0.12 µg/mL
- IgG1 (adalimumab) cleavage, SDS-PAGE titration: enzyme concentration of equal cleavage [2]: 4.6 ng/mL
